Experimental data as given in patent US7291332B2, “Inflammatory mediator antagonists” (SmithKline Beecham Corporation, priority 1998, dated 2007).

System: HepG2 B6 cells (STAT-sPAP reporter)
Assay: OSM-GST mutant driven sPAP production in HepG2 B6 assay
Assay type: cell-based, human
Settings: for 'Potency': relative to wild type, from Mean %
Experimental: HepG2 B6 cells were plated into 96 well plates to a final concentration of 3×10^4 cells per well in 100 μl of media (DMEM (Sigma), 10% HI FCS, 1% non-essential amino acids, 2 mM Glutamine, 500 μg ml^−1 G418, (all from Life Technologies)). Cells were allowed to equilibrate for 48 hours. Putative anti-OSM solid compounds were made up to a stock dilution of 20 mM in DMSO and serially diluted 1:3 in DMSO. This was then further diluted in HepG26B assay media, this is as above media but with 1% heat inactivated FCS, low alkaline phosphatase activity (Life Technologies) substituted for 10% HI FCS. Compounds were diluted 1:3 from a top concentration of […] to a final concentration of 0.09 μM in a final concentration of 1% DMSO. (That is 200, 66.67, 22.22, 7.41, 2.47, 0.82, 0.27, 0.09 and 0 μM). The old media was removed from the wells and replaced with diluted compound also containing 2 ng ml^−1 OSM (R&D Systems), cells were incubated for a further 20 hours. Each dilution was performed in triplicate. 20 μl of media was removed from each well and assayed for sPAP activity using pNPP (p-Nitrophenyl phosphate; Sigma), as a substrate. Endogenous alkaline phosphatase is blocked with L-homoarginine. Optical density of substrate is read at 405-650 nm. Concentration of compound is plotted against OD as a measure of sPAP produced and can be analysed to determine IC50 values.
The assay described in Example 7b above was employed. OSM-GST mutants were diluted to a concentration of 100 ng ml^−using the known concentration of intact OSM mutants generated in Example 9b. A wild type OSM-GST was included for control purposes. Dilutions were made in HepG2 B6 media with 1% heat inactivated FCS, low alkaline phosphatase activity. Serial 1:3 dilutions were then made. (100; 33.33; 11.11; 3.7; 1.23; 0.4 ng ml^−1). 3×10^4 HepG2 B6 were dispensed into individual well of a 96 well plate in 100 μl of media. Cells were allowed to equilibrate for 48 hours. Media was then removed and replaced with 100 μl of diluted OSM-GST mutant. Cells were incubated for a further 20 hours. Each dilution was performed in triplicate. 20 μl of media was removed and assayed for sPAP using pNPP as a substrate. Endogenous ALP was blocked with L-homoarginine. O.D. was read at 405-650 nm. The experiment was repeated twice.

| Expt 1 EC50 | Expt 2 EC50 | Molecule | 'Potency' |
| --- | --- | --- | --- |
| 0.024 µg/mL | 0.032 µg/mL | wild type: wild type human OSM-GST fusion protein [reference compound] | – |
| 0.0324 µg/mL | 0.082 µg/mL | (4) Y10A: OSM-GST fusion, alanine for Tyr 10 (protein, left off: a dimerising Fc or GST; large carriers; small tags and cut ends) AAIGSCSKEARVLLGQLQKQTDLMQDTSRLLDPYIRIQGLDVPKLREHCRERPGAFPSEETLRGLGRRGFLQTLNATLGCVLHRLADLEQRLPKAQDLERSGLNIEDLEKLQMARPNILGLRNNIYCMAQLLDNSDTAEPTKAGRGASQPPTPTPASDAFQRKLEGCRFLHGYHRFMHSVGRVFSKWGESPNRSRR | LESS (>120% Less potent than wild type) |
| 0.017 µg/mL | 0.0105 µg/mL | (14) T21A: OSM-GST fusion, alanine for Thr 21 (protein, left off: a dimerising Fc or GST; large carriers; small tags and cut ends) AAIGSCSKEYRVLLGQLQKQADLMQDTSRLLDPYIRIQGLDVPKLREHCRERPGAFPSEETLRGLGRRGFLQTLNATLGCVLHRLADLEQRLPKAQDLERSGLNIEDLEKLQMARPNILGLRNNIYCMAQLLDNSDTAEPTKAGRGASQPPTPTPASDAFQRKLEGCRFLHGYHRFMHSVGRVFSKWGESPNRSRR | MORE (<80% More potent) |
| 0.0256 µg/mL | 0.025 µg/mL | (16) M113A: OSM-GST fusion, alanine for Met 113 (protein, left off: a dimerising Fc or GST; large carriers; small tags and cut ends) AAIGSCSKEYRVLLGQLQKQTDLMQDTSRLLDPYIRIQGLDVPKLREHCRERPGAFPSEETLRGLGRRGFLQTLNATLGCVLHRLADLEQRLPKAQDLERSGLNIEDLEKLQAARPNILGLRNNIYCMAQLLDNSDTAEPTKAGRGASQPPTPTPASDAFQRKLEGCRFLHGYHRFMHSVGRVFSKWGESPNRSRR | EQUAL (80-120% Equal potency) |
| 0.0202 µg/mL | 0.0217 µg/mL | (11) Q18A: OSM-GST fusion, alanine for Gln 18 (protein, left off: a dimerising Fc or GST; large carriers; small tags and cut ends) AAIGSCSKEYRVLLGQLAKQTDLMQDTSRLLDPYIRIQGLDVPKLREHCRERPGAFPSEETLRGLGRRGFLQTLNATLGCVLHRLADLEQRLPKAQDLERSGLNIEDLEKLQMARPNILGLRNNIYCMAQLLDNSDTAEPTKAGRGASQPPTPTPASDAFQRKLEGCRFLHGYHRFMHSVGRVFSKWGESPNRSRR | MORE (<80% More potent) |
| 0.025 µg/mL | 0.015 µg/mL | (17) P116A: OSM-GST fusion, alanine for Pro 116 (protein, left off: a dimerising Fc or GST; large carriers; small tags and cut ends) AAIGSCSKEYRVLLGQLQKQTDLMQDTSRLLDPYIRIQGLDVPKLREHCRERPGAFPSEETLRGLGRRGFLQTLNATLGCVLHRLADLEQRLPKAQDLERSGLNIEDLEKLQMARANILGLRNNIYCMAQLLDNSDTAEPTKAGRGASQPPTPTPASDAFQRKLEGCRFLHGYHRFMHSVGRVFSKWGESPNRSRR | MORE (<80% More potent) |
| 0.058 µg/mL | 0.0425 µg/mL | (18) N117A: OSM-GST fusion, alanine for Asn 117 (protein, left off: a dimerising Fc or GST; large carriers; small tags and cut ends) AAIGSCSKEYRVLLGQLQKQTDLMQDTSRLLDPYIRIQGLDVPKLREHCRERPGAFPSEETLRGLGRRGFLQTLNATLGCVLHRLADLEQRLPKAQDLERSGLNIEDLEKLQMARPAILGLRNNIYCMAQLLDNSDTAEPTKAGRGASQPPTPTPASDAFQRKLEGCRFLHGYHRFMHSVGRVFSKWGESPNRSRR | LESS (>120% Less potent than wild type) |
| 0.0727 µg/mL | 0.056 µg/mL | (10) L17A: OSM-GST fusion, alanine for Leu 17 (protein, left off: a dimerising Fc or GST; large carriers; small tags and cut ends) AAIGSCSKEYRVLLGQAQKQTDLMQDTSRLLDPYIRIQGLDVPKLREHCRERPGAFPSEETLRGLGRRGFLQTLNATLGCVLHRLADLEQRLPKAQDLERSGLNIEDLEKLQMARPNILGLRNNIYCMAQLLDNSDTAEPTKAGRGASQPPTPTPASDAFQRKLEGCRFLHGYHRFMHSVGRVFSKWGESPNRSRR | LESS (>120% Less potent than wild type) |
| 0.0286 µg/mL | 0.0277 µg/mL | (5) R11A: OSM-GST fusion, alanine for Arg 11 (protein, left off: a dimerising Fc or GST; large carriers; small tags and cut ends) AAIGSCSKEYAVLLGQLQKQTDLMQDTSRLLDPYIRIQGLDVPKLREHCRERPGAFPSEETLRGLGRRGFLQTLNATLGCVLHRLADLEQRLPKAQDLERSGLNIEDLEKLQMARPNILGLRNNIYCMAQLLDNSDTAEPTKAGRGASQPPTPTPASDAFQRKLEGCRFLHGYHRFMHSVGRVFSKWGESPNRSRR | EQUAL (80-120% Equal potency) |
| 0.0194 µg/mL | 0.0249 µg/mL | (7) L14A: OSM-GST fusion, alanine for Leu 14 (protein, left off: a dimerising Fc or GST; large carriers; small tags and cut ends) AAIGSCSKEYRVLAGQLQKQTDLMQDTSRLLDPYIRIQGLDVPKLREHCRERPGAFPSEETLRGLGRRGFLQTLNATLGCVLHRLADLEQRLPKAQDLERSGLNIEDLEKLQMARPNILGLRNNIYCMAQLLDNSDTAEPTKAGRGASQPPTPTPASDAFQRKLEGCRFLHGYHRFMHSVGRVFSKWGESPNRSRR | MORE (<80% More potent) |
| 0.0367 µg/mL | 0.016 µg/mL | (15) D22: OSM-GST fusion, alanine for Asp 22 (protein, left off: a dimerising Fc or GST; large carriers; small tags and cut ends) AAIGSCSKEYRVLLGQLQKQTALMQDTSRLLDPYIRIQGLDVPKLREHCRERPGAFPSEETLRGLGRRGFLQTLNATLGCVLHRLADLEQRLPKAQDLERSGLNIEDLEKLQMARPNILGLRNNIYCMAQLLDNSDTAEPTKAGRGASQPPTPTPASDAFQRKLEGCRFLHGYHRFMHSVGRVFSKWGESPNRSRR | EQUAL (80-120% Equal potency) |
| 0.021 µg/mL | 0.0178 µg/mL | (8) G15A: OSM-GST fusion, alanine for Gly 15 (protein, left off: a dimerising Fc or GST; large carriers; small tags and cut ends) AAIGSCSKEYRVLLAQLQKQTDLMQDTSRLLDPYIRIQGLDVPKLREHCRERPGAFPSEETLRGLGRRGFLQTLNATLGCVLHRLADLEQRLPKAQDLERSGLNIEDLEKLQMARPNILGLRNNIYCMAQLLDNSDTAEPTKAGRGASQPPTPTPASDAFQRKLEGCRFLHGYHRFMHSVGRVFSKWGESPNRSRR | MORE (<80% More potent) |
| 0.0236 µg/mL | 0.0119 µg/mL | (12) K19A: OSM-GST fusion, alanine for Lys 19 (protein, left off: a dimerising Fc or GST; large carriers; small tags and cut ends) AAIGSCSKEYRVLLGQLQAQTDLMQDTSRLLDPYIRIQGLDVPKLREHCRERPGAFPSEETLRGLGRRGFLQTLNATLGCVLHRLADLEQRLPKAQDLERSGLNIEDLEKLQMARPNILGLRNNIYCMAQLLDNSDTAEPTKAGRGASQPPTPTPASDAFQRKLEGCRFLHGYHRFMHSVGRVFSKWGESPNRSRR | MORE (<80% More potent) |
